Data taken from PMC3034190 (Molecular Microbiology, 2010).

Target: the molecule itself
Experiment: crystal structure

B1: MSMEG_3380 (FDR-B family F420H2-dependent reductase), recombinant, for crystallography (enzyme)
chain: MVAVPEGYESLLERPLYGHLATVRPDGTPQVNAMWFAWDGEVLRFTHTTKRQKYRNIKANPAVAMSVIDPDNPYRYLEVRGLVEDIVPDPTGAFYLKLNDRYDGPLTEPPADKADRVIIVVRPTAFSKQ
modifications: seleno-methionine labelled
binding result: binds
